From the supplement of paper PMC11865577

Experiments:
Experiment in all cases: pull-down binding Z-score (relative to library population); higher = stronger binding
[1] = test system: G-clamp-N3 (biotin conjugate); settings: RNA library: Library-1 (pre-miRNA loops + repeats)
In short: (§1)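 Streptavidin beads with 100 pmol of biotin-conjugated small molecule were incubated for 60 min at 25 °C with 1 μg of heat-folded Cy5- or Cy3-end-labelled RNA library in phosphate/NaCl/KCl buffer. Bound RNA was eluted in hot SDS after three washes and hybridised to a DNA barcode microarray at 55.5 °C for 20 h. Each binding score is a library-referenced Z-score, computed after beads-only subtraction and a trimmed mean of barcoded replicate probes.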

[2] = test system: TO-3-N3 (biotin conjugate); settings: RNA library: Library-2
In short: as §1

[3] = test system: TO-3-N3-2 (biotin conjugate); settings: RNA library: Library-2
In short: as §1

TO-N3 (biotin conjugate) = settings: RNA library: Library-2
In short: as §1

[4] = test system: TO-N3-2 (biotin conjugate); settings: RNA library: Library-2
In short: as §1

Sequence | pull-down binding Z-score [1] | pull-down binding Z-score [2] | pull-down binding Z-score [3] | pull-down binding Z-score (TO-N3 (biotin conjugate)) | pull-down binding Z-score [4]
UCAGUUUUGUAGCAUCAAAACU [hsa-mir-4521] | -0.216 | -0.308 | -0.161 | -0.342 | -0.134
UCAUAAAGAUGAUC [hsa-mir-8067] | -0.0232 | 0.251 | 0.0624 | 0.381 | 0.0453
UCAUAAAUAUUUUAAGGAAUGACCCGGCCCUGGGG [hsa-mir-4285] | -0.171 | -0.306 | 0.31 | -0.199 | 0.308
UCAUUUAUGUGAACUAAAAUAUAAAUUU [hsa-mir-513a-2_513a-1] | -1.8 | -1.03 | -0.361 | -1.25 | -1.11
UCCAACCUGAAAUCCUUCUGUAGGUUGAG [hsa-mir-5702] | 1.18 | -0.291 | -0.273 | -0.245 | 0.0189
UCCACAAGGAGGGGAUGACCCUUGUGGG [hsa-mir-4437] | -0.125 | 4.12 | 3.06 | 3.14 | 1.37
UCCACACUGACAAGGGCCGUGGGG [hsa-mir-3191] | -0.843 | 1.19 | 0.217 | 1.19 | 0.967
UCCACCCCCAGAGAAUCCCUAAACCGGGGGUGGA [hsa-mir-1289-1] | -1.69 | -0.51 | -0.243 | -0.645 | -0.449
UCCACCCUGGUCCAGGUCCACAGCAGUGGA [hsa-mir-4644] | -0.617 | 0.173 | 0.0936 | 0.441 | 0.479
UCCACCUAGACGGGCCUGGGUCAA [hsa-mir-4698] | -0.781 | 0.349 | -0.0391 | 0.552 | 0.907
UCCAGACGGAGAUGCGA [hsa-mir-611] | -1.18 | -0.353 | -0.000716 | 0.192 | 0.858
UCCAGAGGCAUCCCUAACCCAGAAUCUUUUGACUGUCCUCUGGA [hsa-mir-4306] | -0.668 | -0.198 | -0.358 | -0.253 | -0.281
UCCAGCUGUGUGAUAUUCUGCUG [hsa-mir-19b-1] | -0.727 | 0.907 | 0.159 | 0.909 | 0.384
UCCAGGAUCUGGGUUUUGAGGUCUUGG [hsa-mir-4309] | 0.525 | 0.835 | 0.267 | 0.673 | 0.345
UCCAGGCAUCUGUGUCUG [hsa-mir-4669] | -0.0379 | 1.48 | 0.402 | 1.52 | 0.591
UCCAGGGCUCCUGACACCUGGA [hsa-mir-6861] | -0.943 | -0.649 | -0.533 | -0.785 | -0.248
UCCAGUGUGGCUCGGAGGCUGGA [hsa-mir-139] | 3.31 | 0.91 | 0.381 | 1.23 | 1.18
UCCAUGAAAAGAACCCAUGGG [hsa-mir-4471] | -0.734 | -0.455 | 0.0519 | -0.608 | -0.307
UCCCAGCCACUCUGGAGG [hsa-mir-4419b] | 0.653 | 0.274 | -0.194 | 0.44 | 0.631

Sequence | pull-down binding Z-score [1] | pull-down binding Z-score [2] | pull-down binding Z-score [3] | pull-down binding Z-score (TO-N3 (biotin conjugate)) | pull-down binding Z-score [4]
UCCCAGGAAAUUCACUUUAGGAAGUCCUAGGA [hsa-mir-5571] | 0.804 | -0.734 | -0.303 | -1.1 | -1.41
UCCCAGGCCCUUCCUCCAAUACUGGGA [hsa-mir-4666b] | -0.809 | -0.252 | -0.0987 | -0.383 | -0.446
UCCCAUUUCCACAUGGAGAGUGGAGCCCAGA [hsa-mir-3123] | 1.02 | 0.384 | 0.0927 | 0.639 | 0.671
UCCCCAGAAGCUGAGGAUUAGGGGA [hsa-mir-6503] | 1.93 | 0.0937 | -0.131 | -0.0188 | -0.108
UCCCCUAGCGCGCCUUCUGGAGA [hsa-mir-3188] | 1.12 | -0.271 | -0.0116 | -0.0603 | 0.507
UCCCCUCAGGA [hsa-mir-5703] | 0.99 | 0.0295 | -0.595 | -0.256 | -0.802
UCCCUUCCUGGACACACAGGAGGAGA [hsa-mir-5680] | -1.27 | -0.738 | -0.8 | -0.874 | -0.56
UCCGGCCGGCCAUGCUGGCGGGG [hsa-mir-762] | 0.45 | -0.72 | -0.506 | -0.676 | 0.213
UCCUAGGCGGGUCGCUGCGGUACCUCCCUCCUGUCUGUGGCGGUGGGAUCCCGUGGCCGUGUUUUCCUGGUG [hsa-mir-663b] | -0.826 | -0.114 | -0.0831 | 0.683 | 1.55
UCCUCAGACCAGGUGGCUCCCGAGCCACCCCAGGCUGUAGG [hsa-mir-2392] | -1.09 | -0.0269 | -0.183 | 0.743 | 1.75
UCCUCCACAAAUGCGUGUGGAGGA [hsa-mir-4633] | 0.135 | -0.89 | -0.698 | -1.34 | -1.6
UCCUCCAUGCUUGGAAAAUGCAGGGAGGA [hsa-mir-764] | 0.669 | -0.857 | -0.61 | -0.987 | -1.01
UCCUCUCCUGGUCUGGGAGGAUAGAAGAGAGGA [hsa-mir-5191] | 1.96 | -0.205 | -0.219 | 0.823 | 3.13
UCCUGAGACAGGA [hsa-mir-4261] | -0.47 | -0.563 | -0.5 | -0.807 | -1.02
UCCUGAGCUAGGAGGAUUAGGA [hsa-mir-5093] | 1.05 | -0.171 | -0.0611 | -0.07 | 0.417
UCCUGAUCUGAUGGAAGUCAUGA [hsa-mir-7843] | -0.244 | -0.312 | -0.16 | -0.0481 | 0.409
UCCUGAUGGUCCCCUCCCCAGGG [hsa-mir-185] | -1.02 | 0.122 | -0.187 | 0.275 | 0.784
UCCUGGGAAGCAUGGUAGCCAGGA [hsa-mir-5192] | 2.06 | 0.314 | 0.431 | 0.319 | 0.994
